Target: T1, PPC peptide, soluble recombinant 18-mer ADGACGYGRFSPPCGAAG
T1 chain: ADGACGYGRFSPPCGAAG

B1: aminophenylmercuric acetate (APMA)-activated MMP-2 (protein)
chain: YNFFPRKPKWDKNQITYRIIGYTPDLDPETVDDAFARAFQVWSDVTPLRFSRIHDGEADIMINFGRWEHGDGYPFDGKDGLLAHAFAPGTGVGGDSHFDDDELWTLGEGQVVRVKYGNADGEYCKFPFLFNGKEYNSCTDTGRSDGFLWCSTTYNFEKDGKYGFCPHEALFTMGGNAEGQPCKFPFRFQGTSYDSCTTEGRTDGYRWCGTTEDYDRDKKYGFCPETAMSTVGGNSEGAPCVFPFTFLGNKYESCTSAGRSDGKMWCATTANYDDDRKWGFCPDQGYSLFLVAAHEFGHAMGLEHSQDPGALMAPIYTYTKNFRLSQDDIKGIQELYGASPDIDLGTGPTPTLGPVTPEICKQDIVFDGIAQIRGEIFFFKDRFIWRTVTPRDKPMGPLLVATFWPELPEKIDAVYEAPQEEKAVFFAGNEYWIYSASTLERGYPKPLTSLGLPPDVQRVDAAFNWSKNKKTYIFAGDKFWRYNEVKKKMDPGFPKLIADAWNAIPDNLDAVVDLQGGGHSYFFKGAYYLKLENQSLKSVKFGSIKSDWLGC
gelatin degradation assay (enzymatic activity, biotinylated gelatin substrate): PPC inhibited both MMP-9 and MMP-2 activity
